# From article PMC11847480
# Biological target: gp130 (human (endogenous in TF-1)) (UniProt P40189)
# Sequence (P40189 23-918): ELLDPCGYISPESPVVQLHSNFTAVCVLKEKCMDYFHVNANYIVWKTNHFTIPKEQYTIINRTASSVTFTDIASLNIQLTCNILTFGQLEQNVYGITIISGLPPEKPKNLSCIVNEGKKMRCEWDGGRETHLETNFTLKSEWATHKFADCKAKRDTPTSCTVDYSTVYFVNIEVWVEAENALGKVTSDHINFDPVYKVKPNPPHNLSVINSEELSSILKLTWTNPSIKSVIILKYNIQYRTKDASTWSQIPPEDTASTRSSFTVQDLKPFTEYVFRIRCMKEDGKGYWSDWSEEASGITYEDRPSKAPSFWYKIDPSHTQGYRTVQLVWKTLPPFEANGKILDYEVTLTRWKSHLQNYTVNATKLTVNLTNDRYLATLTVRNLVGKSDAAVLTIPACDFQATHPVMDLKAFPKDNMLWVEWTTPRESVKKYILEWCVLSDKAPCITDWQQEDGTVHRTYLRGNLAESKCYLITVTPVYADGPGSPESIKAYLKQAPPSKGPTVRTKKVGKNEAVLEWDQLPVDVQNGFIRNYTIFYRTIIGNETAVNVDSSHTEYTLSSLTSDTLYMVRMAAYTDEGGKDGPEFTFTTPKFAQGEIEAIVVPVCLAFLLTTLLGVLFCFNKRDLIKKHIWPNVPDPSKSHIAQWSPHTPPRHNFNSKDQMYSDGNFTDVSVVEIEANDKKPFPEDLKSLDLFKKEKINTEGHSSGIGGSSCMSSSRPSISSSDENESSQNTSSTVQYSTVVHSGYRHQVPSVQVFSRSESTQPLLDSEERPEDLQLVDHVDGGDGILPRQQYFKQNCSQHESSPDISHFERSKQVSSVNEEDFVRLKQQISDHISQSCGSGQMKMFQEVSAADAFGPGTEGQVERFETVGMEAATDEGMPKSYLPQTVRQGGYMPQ
# Sequence of LIF with truncation of the N-terminal region (P15018 23-202): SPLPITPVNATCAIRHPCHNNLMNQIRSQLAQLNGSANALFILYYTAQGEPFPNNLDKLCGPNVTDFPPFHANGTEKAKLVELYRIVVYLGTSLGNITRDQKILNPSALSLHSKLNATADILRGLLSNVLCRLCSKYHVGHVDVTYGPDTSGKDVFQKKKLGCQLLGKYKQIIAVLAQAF
"TF-1 cell proliferation, fold change of EC50 against wild-type LIF",TF-1 cell proliferation activity against wild-type LIF,Substance
4 fold,,"LIF 3E (R37E, H38E and H41E) (from UniProt P15018 23-202) (ligand)"
3 fold,,LIF 2E (R37E and H38E) (from UniProt P15018 23-202) (ligand)
,1 fold,LIF with truncation of the N-terminal region (from UniProt P15018 23-202) (ligand)
